Data published in the Immune Epitope Database (IEDB).
Values belong to the sequence of their own block, whether it stands above or below them.

Legend:
HLA-B*44:02 = assay: IEDB peptide-MHC binding, purified MHC/competitive/radioactivity; filed as Kd, often an IC50 or EC50 that approximates it; ≥ and ≤ were set here for values at or beyond the usual limits of such assays
HLA-A*26:01 = assay: as above; settings: source organism: Dengue virus 4 Philippines/H241/1956
HLA-B*51:01 = assay: as above; settings: source organism: Dengue virus 1 Brazil/97-11/1997
HLA-B*08:01 = assay: as above
HLA-A*02:01 [1] = assay: as above; settings: source organism: Homo sapiens
HLA-A*03:01 [2] = assay: IEDB peptide-MHC binding, purified MHC/direct/fluorescence; filed as Kd, often an IC50 or EC50 that approximates it; ≥ and ≤ were set here for values at or beyond the usual limits of such assays; settings: source organism: Haemophilus influenzae
HLA-A*31:01 [3] = assay: as above
HLA-B*15:01 = assay: as above
HLA-A*30:01 = assay: IEDB peptide-MHC binding, purified MHC/competitive/radioactivity; filed as Kd, often an IC50 or EC50 that approximates it; ≥ and ≤ were set here for values at or beyond the usual limits of such assays
HLA-B*44:03 = assay: as above
HLA-A*03:01 [4] = assay: as above; settings: source organism: Vaccinia virus WR
HLA-A*31:01 [5] = assay: as above; settings: source organism: Vaccinia virus WR
HLA-A*68:01 = assay: as above
HLA-A*11:01 = assay: as above; settings: source organism: Vaccinia virus WR
HLA-A*33:01 = assay: as above
HLA-A*69:01 = assay: IEDB peptide-MHC binding, purified MHC/direct/fluorescence; filed as Kd, often an IC50 or EC50 that approximates it; ≥ and ≤ were set here for values at or beyond the usual limits of such assays; settings: source organism: SARS-CoV1
HLA-A*02:01 [6] = assay: as above; settings: source organism: SARS-CoV1
HLA-B*27:05 = assay: as above; settings: source organism: SARS-CoV1
HLA-A*24:02 [7] = assay: IEDB peptide-MHC binding, purified MHC/competitive/fluorescence; ≥ and ≤ were set here for values at or beyond the usual limits of such assays
HLA-A*23:01 = assay: IEDB peptide-MHC binding, purified MHC/competitive/radioactivity; filed as Kd, often an IC50 or EC50 that approximates it; ≥ and ≤ were set here for values at or beyond the usual limits of such assays; settings: source organism: Dengue virus 4 Philippines/H241/1956
HLA-A*24:02 [8] = assay: as above; settings: source organism: Dengue virus 4 Philippines/H241/1956
[9] = source organism: Dengue virus 1 Brazil/97-11/1997
[10] = source organism: Haemophilus influenzae
[11] = source organism: Dengue virus 4 Philippines/H241/1956
[12] = source organism: Dengue virus 3 Singapore/8120/1995
[13] = source organism: Dengue virus 2 Jamaica/1409/1983
[14] = source organism: Vaccinia virus WR
[15] = source organism: SARS coronavirus Tor2

Sequence: HEMYWVSCG
- Kd (HLA-B*44:02; [9]): 37.4 nM

Sequence: HTIENTSAN
- Kd (HLA-A*26:01): 4840 nM

Sequence: IAFLRFLAI
- Kd (HLA-B*51:01): 9.53 nM
- Kd (HLA-B*08:01; [9]): 1.26 nM

- Kd (HLA-A*02:01 [1]): 4080 nM
Sequence: ILDKVLVHP

- Kd (HLA-A*03:01 [2]): 3180 nM
- Kd (HLA-A*31:01 [3]; [10]): 5580 nM
- Kd (HLA-B*15:01; [10]): 531 nM
Sequence: ILKEHVSRY

Sequence: ISKVRSNAA
- Kd (HLA-A*30:01; [11]): 712 nM
- Kd (HLA-B*08:01; [11]): 7.31 nM

Sequence: KEEHSSTWHY
- Kd (HLA-B*44:02; [12]): 42.2 nM
- Kd (HLA-B*44:03; [12]): 205 nM

Sequence: KETACLGKSY
- Kd (HLA-B*44:03; [13]): 23.6 nM

Sequence: KFRPGSLIY
- Kd (HLA-A*03:01 [4]): ≥ 21300 nM
- Kd (HLA-A*31:01 [5]): 11300 nM
- Kd (HLA-A*68:01; [14]): ≥ 77700 nM
- Kd (HLA-A*30:01; [14]): 0.303 nM
- Kd (HLA-A*11:01): ≥ 58400 nM
- Kd (HLA-A*33:01; [14]): ≥ 77700 nM

Sequence: KIKSSNSSK
- Kd (HLA-A*30:01; [14]): 14.6 nM

Sequence: KKMIRPQPM
- Kd (HLA-B*08:01; [9]): 188 nM

Sequence: KLFAAETLK
- Kd (HLA-A*68:01; [15]): 399 nM
- Kd (HLA-A*33:01; [15]): 13600 nM
- Kd (HLA-A*69:01): 15900 nM
- Kd (HLA-A*02:01 [6]): ≥ 29200 nM
- Kd (HLA-A*31:01 [3]; source organism: SARS-CoV1): 173 nM
- Kd (HLA-B*27:05): 2180 nM
- Kd (HLA-B*15:01; source organism: SARS-CoV1): ≥ 21300 nM

Sequence: KRDGVKRLE
- IC50 (HLA-A*24:02 [7]; source organism: Zaire ebolavirus): ≥ 173000 nM

Sequence: KRSLRPQPTE
- Kd (HLA-A*30:01; [13]): 3690 nM

Sequence: LCRTSCLQK
- Kd (HLA-A*30:01; [11]): 1350 nM

Sequence: LFQKAFSMP
- IC50 (HLA-A*24:02 [7]; source organism: Sudan ebolavirus): 2780 nM

Sequence: LWVAEIQPQW
- Kd (HLA-A*23:01): 1380 nM
- Kd (HLA-A*24:02 [8]): 312 nM

Sequence: MAICSAVPTE
- Kd (HLA-A*30:01; [11]): 10600 nM
